The values below come from the supplement of paper PMC10126150.

± gives the standard deviation of the averaged measurements.
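Also: ATP exposure 15 min at 22 °C before imaging.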

The subject of this series is ATP. Put plainly: switch fluorescence ratio, 500 uM ATP over buffer (Cy3 cluster intensity, sum of 5 cycles each) (fold (ratio)); higher = stronger signal-on switching upon ATP binding; sequences stand for … in TCGTCGGCAGCGTCAGATGTGTATAAGAGACAGTTTTTTTTTTTTTTTTTTTTTTTTT…TC. The note with it: aptamer strand: ATP DNA aptamer (quencher-CACCTGGGGGAGTATTGCGGAGGAAGG + anchor), 100 nM annealed; ATP concentration: 500 uM. In short, it runs like this:
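The quencher-labelled ATP aptamer, at 100 nM, was annealed to Cy3-labelled switching-strand clusters on a modified Illumina MiSeq flow-cell. The clusters were imaged in selection buffer, then after 15 min with 500 uM ATP at 22 °C, and this buffer/ATP cycle ran five times with NaOH stripping and re-annealing between runs. Per-cluster fluorescence ratios, summed target-cycle over summed buffer-cycle Cy3 intensity, were averaged per switch-domain sequence. Clusters outside 100-1000 RFU were excluded.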
ACCCAGGGCG: the switch fluorescence ratio came to 1.44 ± 0.13. Consider GGCGCTTAGA, for which the switch fluorescence ratio turned out to be 1 ± 0.053. With TTAGAGACGT, the switch fluorescence ratio amounted to 1.03 ± 0.027. The figure for TTGAGTGGTC is 0.997 ± 0.016. With TGTGGATTAT, the switch fluorescence ratio is 0.988 ± 0.011. TTGGTTTACG: the switch fluorescence ratio is 1.02 ± 0.03. Take AGCGGATTTG: the switch fluorescence ratio came to 0.966 ± 0.014.

In the case of TGGGGTTG, the switch fluorescence ratio stood at 0.993 ± 0.018. As to ACCAGTCTGG, the switch fluorescence ratio turned out to be 1.01 ± 0.017.

As for CATTTACGCT, the switch fluorescence ratio is 1.03 ± 0.014. As to CGTTCTAATT, the switch fluorescence ratio was 1.01 ± 0.024.

On to TTCTAACTGG, for which the switch fluorescence ratio was determined as 0.995 ± 0.013. As for TATAAAAATC, the switch fluorescence ratio worked out at 1.07 ± 0.084. For GAATGGTCGC the value was 0.963 ± 0.026. The figure for ATCCTCGATT is 0.964 ± 0.0095; for GGGATTCCTG it is 0.9777 ± 0.0061. Consider CCCTTTAGGG, for which the switch fluorescence ratio was determined as 1.025 ± 0.0025. GTGATCATCG: the switch fluorescence ratio came out at 1.0081 ± 0.00023. Turning to GGGGGTTTGG, the switch fluorescence ratio is 0.991 ± 0.03. For the sequence CGTGGGGGCG, the switch fluorescence ratio stood at 1.01 ± 0.03. For the sequence CCCAGATTAA, the switch fluorescence ratio stood at 1.01 ± 0.085. For TTTAGCT the value was 1.08 ± 0.097.

With TACTAGTTGG, the switch fluorescence ratio is 0.997 ± 0.011. Turning to AAAGTGTGTT, the switch fluorescence ratio amounted to 0.993 ± 0.025. Take GTGGGGGAAG: the switch fluorescence ratio came out at 0.993 ± 0.039. TAGTAGGAGT: the switch fluorescence ratio was found to be 1.02 ± 0.035. Turning to GTGTTTTTGA, the switch fluorescence ratio was determined as 1.01 ± 0.034. For the sequence GGTTTCTTCG, the switch fluorescence ratio is 1.09 ± 0.1.

For TTTCCCGGGC, the switch fluorescence ratio is 1.01 ± 0.056.

With TGGTGGTTGT, the switch fluorescence ratio is 1.02 ± 0.012. As to GGACTTCTGG, the switch fluorescence ratio turned out to be 0.998 ± 0.041. Turning to AGGGAGTATG, the switch fluorescence ratio stood at 1.01 ± 0.023. The figure for CTAATGTGCC is 0.993 ± 0.052. TTAGTGGCGA: the switch fluorescence ratio was determined as 1.19 ± 0.31. The figure for GATAATTGGG is 0.9992 ± 0.0079; for TAACGTTTTT it is 1.1 ± 0.024; for GTATGGGATA it is 1.01 ± 0.035.

For the sequence ATTGCTTTTT, the switch fluorescence ratio came to 0.9834 ± 0.0066.

On to TCGCTACTCG, for which the switch fluorescence ratio stood at 3.07 ± 0.62. As for TTTAAATCTT, the switch fluorescence ratio was 1.06 ± 0.022. For ATTAAGGGGT the value was 1.07 ± 0.12. With TTTGGAGATA, the switch fluorescence ratio came out at 1.03 ± 0.032. With AAAATGGTAA, the switch fluorescence ratio came to 1.001 ± 0.0057. GGGTGGTTGC: the switch fluorescence ratio is 0.99544 ± 4.2e-05. With TAGGGCCAGC, the switch fluorescence ratio was 1.04 ± 0.033. For TCCGGTTTTG the value was 0.979 ± 0.013; for GGTTGGGTGT, 1.02 ± 0.027; for TTAAGCTGAA, 0.961 ± 0.044. Regarding CCTGTTTGAG, the switch fluorescence ratio came out at 1.04 ± 0.11. For the sequence GGGGCTATTT, the switch fluorescence ratio was determined as 1.01 ± 0.066.

As to ATTCGTTTTC, the switch fluorescence ratio turned out to be 1.02 ± 0.024.

Consider TTGATGCTCT, for which the switch fluorescence ratio was found to be 1.21 ± 0.28. For the sequence TTCCATTTTT, the switch fluorescence ratio came out at 0.984 ± 0.012. For CCGTTATAGT the value was 1.795 ± 0.012; for TTTAAAAAGC, 0.996 ± 0.032; for GACTGCTACT, 1.51 ± 0.028.

As to TAGAAAAGAG, the switch fluorescence ratio was found to be 1.01 ± 0.024. The figure for TTGGACCCAT is 1.02 ± 0.02; for CTGTTTAATG it is 0.9871 ± 0.0038. For GGTTCAGGTA the value was 0.9876 ± 0.0062. The figure for ATATGGGTGG is 1.01 ± 0.016; for CACCTTACTT it is 1.26 ± 0.062; for AAGATTTCGT it is 1 ± 0.044. Turning to ACCGGGGCAA, the switch fluorescence ratio stood at 1.13 ± 0.16.

GTGGGTCAGG: the switch fluorescence ratio came out at 1.01 ± 0.013. For TGCCCGGGGG the value was 1.24 ± 0.26; for TATGAAGCCC, 1.02 ± 0.039. For GGTGAAAAGC the value was 1.02 ± 0.059. With TTCAGAGCGT, the switch fluorescence ratio worked out at 0.994 ± 0.018. For GGGCTTAAAA, the switch fluorescence ratio was determined as 0.98424 ± 0.00098. In the case of AGGAGCCTTT, the switch fluorescence ratio came to 0.9927 ± 0.0011.

Turning to GGAATTTCTG, the switch fluorescence ratio was 0.945 ± 0.014. For GAGGTGCGGT, the switch fluorescence ratio was 0.975 ± 0.049. On to ACCTTGATTG, for which the switch fluorescence ratio came out at 1.01 ± 0.018.

As to AGGCGGATGT, the switch fluorescence ratio is 0.978 ± 0.016. Turning to TAACGGGGCG, the switch fluorescence ratio was 1.01 ± 0.049.

On to AGGGGAGTGG, for which the switch fluorescence ratio amounted to 0.992 ± 0.038.

TAGACGGAAG: the switch fluorescence ratio came out at 1.052 ± 0.00072.

In the case of AACCCGCACC, the switch fluorescence ratio was determined as 2.75 ± 0.12. Regarding CAAGGGATTT, the switch fluorescence ratio is 0.982 ± 0.036.

As for TGAATATCTT, the switch fluorescence ratio was 1.01 ± 0.026. The figure for GAGTGGAGGC is 1.03 ± 0.05; for TTCAAGGGTT it is 1.07 ± 0.18. Take GACGAAGCAT: the switch fluorescence ratio is 5.33 ± 0.82. Turning to GCCTCCTTTT, the switch fluorescence ratio turned out to be 1.05 ± 0.019.

In the case of AGGAGGGGAG, the switch fluorescence ratio worked out at 1.024 ± 0.0053. As to TTTGTATGGG, the switch fluorescence ratio amounted to 0.972 ± 0.018. Take GGTTACTGTT: the switch fluorescence ratio turned out to be 1.08 ± 0.096. For the sequence CGATTTCTCT, the switch fluorescence ratio came out at 0.973 ± 0.04.

For the sequence ACGGCGGGGG, the switch fluorescence ratio is 1.15 ± 0.25. For the sequence AGGTTCACTT, the switch fluorescence ratio came to 0.998 ± 0.025.

ACGGGGGCGG: the switch fluorescence ratio is 1 ± 0.033. Turning to GAGGATCGGG, the switch fluorescence ratio was 0.992 ± 0.023. As for ACGAGTTTTT, the switch fluorescence ratio amounted to 1.01 ± 0.021. Turning to ATATGGTATT, the switch fluorescence ratio came out at 0.99 ± 0.023. With ATGGGGCTCT, the switch fluorescence ratio came to 0.9967 ± 0.0067.

As for ACATCTGACA, the switch fluorescence ratio was 1.06 ± 0.019. As for TGAGTCGGGA, the switch fluorescence ratio is 1.01 ± 0.014. The figure for GTTTTTTGAA is 0.9764 ± 0.0021. For CGTTAAATAA the value was 1.004 ± 0.0054; for ATGCTGGTGG, 0.978 ± 0.046. On to TATATTTCTG, for which the switch fluorescence ratio stood at 0.986 ± 0.019. For GGACTAGGGA the value was 1.01 ± 0.018; for GAACTCGGGG, 1.019 ± 0.0051. The figure for GGTAGTGTGG is 0.992 ± 0.023.

As to TTAGGGAA, the switch fluorescence ratio amounted to 1.01 ± 0.023. Take TTGGGTGGCG: the switch fluorescence ratio worked out at 1.04 ± 0.12. Turning to TATTTGTAGG, the switch fluorescence ratio amounted to 1.05 ± 0.045.

With GATGGTAATT, the switch fluorescence ratio turned out to be 1 ± 0.025.
